# Measured values from IntAct's records for PubMed 36931259.
# B1: 14-3-3 protein sigma (Homo sapiens), P31947 (parent)
# chain: MERASLIQKAKLAEQAERYEDMAAFMKGAVEKGEELSCEERNLLSVAYKNVVGGQRAAWRVLSSIEQKSNEEGSEEKGPEVREYREKVETELQGVCDTVLGLLDSHLIKEAGDAESRVFYLKMKGDYYRYLAEVATGDDKKRIIDSARSAYQEAMDISKKEMPPTNPIRLGLALNFSVFHYEIANSPEEAISLAKTTFDEAMADLHTLSEDSYKDSTLIMQLLRDNLTLWTADNAGEEGGEAPQEPQS
# partner: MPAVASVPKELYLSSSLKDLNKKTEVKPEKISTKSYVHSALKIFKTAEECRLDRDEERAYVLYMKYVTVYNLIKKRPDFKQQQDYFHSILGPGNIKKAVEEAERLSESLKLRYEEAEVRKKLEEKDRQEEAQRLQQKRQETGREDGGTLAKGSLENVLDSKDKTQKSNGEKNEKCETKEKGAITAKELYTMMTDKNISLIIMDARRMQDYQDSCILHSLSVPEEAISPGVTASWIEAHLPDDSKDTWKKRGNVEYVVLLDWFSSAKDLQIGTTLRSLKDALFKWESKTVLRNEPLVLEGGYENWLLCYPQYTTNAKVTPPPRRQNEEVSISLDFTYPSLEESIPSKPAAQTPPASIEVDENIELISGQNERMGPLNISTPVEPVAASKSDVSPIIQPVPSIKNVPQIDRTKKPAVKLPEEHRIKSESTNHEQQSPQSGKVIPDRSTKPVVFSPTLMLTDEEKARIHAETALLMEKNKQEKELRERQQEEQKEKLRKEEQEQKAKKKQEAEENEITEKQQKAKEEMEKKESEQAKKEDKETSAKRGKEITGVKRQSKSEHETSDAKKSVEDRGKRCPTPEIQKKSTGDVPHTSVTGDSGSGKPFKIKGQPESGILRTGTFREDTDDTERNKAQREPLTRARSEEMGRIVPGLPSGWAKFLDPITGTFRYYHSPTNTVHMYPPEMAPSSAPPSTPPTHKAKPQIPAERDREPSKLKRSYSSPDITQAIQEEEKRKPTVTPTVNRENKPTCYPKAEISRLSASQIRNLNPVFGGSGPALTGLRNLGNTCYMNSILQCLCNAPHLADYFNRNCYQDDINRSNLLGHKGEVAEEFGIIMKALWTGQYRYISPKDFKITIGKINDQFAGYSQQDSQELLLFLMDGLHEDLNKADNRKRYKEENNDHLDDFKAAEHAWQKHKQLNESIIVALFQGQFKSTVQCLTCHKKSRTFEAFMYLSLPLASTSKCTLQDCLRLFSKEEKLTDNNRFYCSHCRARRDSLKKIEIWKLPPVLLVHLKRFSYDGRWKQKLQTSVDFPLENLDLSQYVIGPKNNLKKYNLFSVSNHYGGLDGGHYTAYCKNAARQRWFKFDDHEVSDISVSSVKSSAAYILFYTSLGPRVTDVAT
# B2: 14-3-3 protein sigma (Homo sapiens), P31947 (parent)
# chain: B1 chain
# partner: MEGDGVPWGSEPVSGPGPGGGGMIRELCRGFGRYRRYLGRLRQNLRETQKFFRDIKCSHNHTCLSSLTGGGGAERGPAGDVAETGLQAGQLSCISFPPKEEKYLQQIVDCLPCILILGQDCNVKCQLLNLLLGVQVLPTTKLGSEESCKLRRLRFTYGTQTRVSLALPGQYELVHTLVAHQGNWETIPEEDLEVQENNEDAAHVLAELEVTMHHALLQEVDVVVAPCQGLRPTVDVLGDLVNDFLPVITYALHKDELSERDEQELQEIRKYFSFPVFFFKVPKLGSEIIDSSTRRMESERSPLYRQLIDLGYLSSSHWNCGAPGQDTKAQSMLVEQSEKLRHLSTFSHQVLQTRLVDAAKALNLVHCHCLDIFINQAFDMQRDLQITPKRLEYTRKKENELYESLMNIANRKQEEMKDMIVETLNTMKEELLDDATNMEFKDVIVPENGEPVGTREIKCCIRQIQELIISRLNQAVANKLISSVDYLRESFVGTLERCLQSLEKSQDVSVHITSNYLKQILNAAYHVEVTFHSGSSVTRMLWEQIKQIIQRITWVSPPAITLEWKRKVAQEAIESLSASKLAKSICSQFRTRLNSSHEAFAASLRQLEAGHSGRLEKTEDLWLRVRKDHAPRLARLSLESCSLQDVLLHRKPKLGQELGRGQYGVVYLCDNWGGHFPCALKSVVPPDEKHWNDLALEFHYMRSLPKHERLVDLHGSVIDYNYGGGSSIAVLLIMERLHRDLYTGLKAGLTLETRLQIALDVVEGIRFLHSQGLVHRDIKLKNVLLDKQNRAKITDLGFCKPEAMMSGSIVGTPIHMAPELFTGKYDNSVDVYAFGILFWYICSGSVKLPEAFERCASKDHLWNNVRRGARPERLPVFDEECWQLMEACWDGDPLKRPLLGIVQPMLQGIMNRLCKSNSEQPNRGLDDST
# B3: 14-3-3 protein sigma (Homo sapiens), P31947 (parent)
# chain: B1 chain
# partner: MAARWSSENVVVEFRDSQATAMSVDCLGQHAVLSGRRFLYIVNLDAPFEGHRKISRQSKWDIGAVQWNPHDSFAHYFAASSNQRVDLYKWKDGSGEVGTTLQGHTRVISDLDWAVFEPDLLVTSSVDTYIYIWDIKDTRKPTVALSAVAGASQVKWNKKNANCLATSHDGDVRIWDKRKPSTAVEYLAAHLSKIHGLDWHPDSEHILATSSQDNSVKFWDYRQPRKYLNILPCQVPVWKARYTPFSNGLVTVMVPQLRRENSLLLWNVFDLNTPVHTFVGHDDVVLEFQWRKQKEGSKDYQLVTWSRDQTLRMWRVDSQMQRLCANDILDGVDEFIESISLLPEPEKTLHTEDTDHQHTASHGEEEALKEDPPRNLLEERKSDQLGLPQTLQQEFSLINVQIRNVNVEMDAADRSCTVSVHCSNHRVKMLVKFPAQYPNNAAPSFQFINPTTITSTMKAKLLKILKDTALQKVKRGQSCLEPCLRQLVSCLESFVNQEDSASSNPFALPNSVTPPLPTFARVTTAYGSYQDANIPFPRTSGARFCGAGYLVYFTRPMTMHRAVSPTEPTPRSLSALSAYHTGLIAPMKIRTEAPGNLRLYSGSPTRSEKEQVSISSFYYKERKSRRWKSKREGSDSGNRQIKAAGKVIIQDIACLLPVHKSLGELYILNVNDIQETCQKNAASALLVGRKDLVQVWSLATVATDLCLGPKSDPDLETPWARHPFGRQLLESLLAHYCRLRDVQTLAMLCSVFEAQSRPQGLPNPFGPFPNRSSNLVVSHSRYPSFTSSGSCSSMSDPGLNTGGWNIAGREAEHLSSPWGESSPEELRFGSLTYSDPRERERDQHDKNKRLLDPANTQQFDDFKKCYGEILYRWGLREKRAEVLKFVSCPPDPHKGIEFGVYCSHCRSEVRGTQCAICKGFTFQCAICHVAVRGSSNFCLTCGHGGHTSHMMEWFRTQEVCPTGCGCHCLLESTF
# B4: 14-3-3 protein sigma (Homo sapiens), P31947 (parent)
# chain: B1 chain
# partner: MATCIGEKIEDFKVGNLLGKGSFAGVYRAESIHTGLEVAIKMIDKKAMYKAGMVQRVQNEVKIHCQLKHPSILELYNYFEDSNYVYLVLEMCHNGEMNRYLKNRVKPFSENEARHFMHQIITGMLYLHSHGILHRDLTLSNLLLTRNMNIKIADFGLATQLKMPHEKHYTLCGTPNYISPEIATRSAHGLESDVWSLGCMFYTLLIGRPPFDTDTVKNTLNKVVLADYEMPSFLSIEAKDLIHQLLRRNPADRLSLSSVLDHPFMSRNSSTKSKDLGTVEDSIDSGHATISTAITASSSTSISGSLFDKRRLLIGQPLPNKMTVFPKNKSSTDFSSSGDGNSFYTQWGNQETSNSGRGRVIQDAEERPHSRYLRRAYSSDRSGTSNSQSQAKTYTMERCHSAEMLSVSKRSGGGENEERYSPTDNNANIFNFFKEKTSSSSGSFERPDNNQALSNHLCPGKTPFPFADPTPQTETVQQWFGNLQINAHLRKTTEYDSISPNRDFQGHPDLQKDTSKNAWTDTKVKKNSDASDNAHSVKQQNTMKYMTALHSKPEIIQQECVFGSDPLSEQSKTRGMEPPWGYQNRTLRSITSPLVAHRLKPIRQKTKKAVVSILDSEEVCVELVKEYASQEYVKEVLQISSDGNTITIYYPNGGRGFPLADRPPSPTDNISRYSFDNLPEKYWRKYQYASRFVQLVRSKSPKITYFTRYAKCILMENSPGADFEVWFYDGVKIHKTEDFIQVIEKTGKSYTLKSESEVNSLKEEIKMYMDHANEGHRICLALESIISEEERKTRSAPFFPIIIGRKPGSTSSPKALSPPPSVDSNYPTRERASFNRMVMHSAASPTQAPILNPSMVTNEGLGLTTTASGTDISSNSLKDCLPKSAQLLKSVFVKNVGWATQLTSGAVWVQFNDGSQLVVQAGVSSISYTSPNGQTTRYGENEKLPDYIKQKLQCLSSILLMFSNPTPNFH
# B5: 14-3-3 protein sigma (Homo sapiens), P31947 (parent)
# chain: B1 chain
# partner: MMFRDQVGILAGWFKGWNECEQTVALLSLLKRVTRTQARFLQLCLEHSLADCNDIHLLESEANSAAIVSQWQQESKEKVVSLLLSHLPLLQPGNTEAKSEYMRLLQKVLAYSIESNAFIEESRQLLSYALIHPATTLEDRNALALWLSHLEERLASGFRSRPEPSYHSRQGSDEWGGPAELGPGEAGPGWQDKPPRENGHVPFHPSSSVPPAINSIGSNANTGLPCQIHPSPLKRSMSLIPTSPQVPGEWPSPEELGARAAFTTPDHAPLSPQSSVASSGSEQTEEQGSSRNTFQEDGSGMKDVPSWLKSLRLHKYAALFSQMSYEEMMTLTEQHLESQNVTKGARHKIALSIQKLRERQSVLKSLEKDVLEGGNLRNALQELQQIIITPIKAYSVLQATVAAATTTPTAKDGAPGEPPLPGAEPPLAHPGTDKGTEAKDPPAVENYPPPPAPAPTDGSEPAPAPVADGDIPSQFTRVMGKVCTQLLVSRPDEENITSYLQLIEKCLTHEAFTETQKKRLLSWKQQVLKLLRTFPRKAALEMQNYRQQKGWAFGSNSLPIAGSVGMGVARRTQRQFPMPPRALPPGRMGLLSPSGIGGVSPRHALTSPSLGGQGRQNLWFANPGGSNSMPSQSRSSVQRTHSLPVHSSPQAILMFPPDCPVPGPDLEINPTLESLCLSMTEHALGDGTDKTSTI
# B6: 14-3-3 protein sigma (Homo sapiens), P31947 (parent)
# chain: B1 chain
# partner: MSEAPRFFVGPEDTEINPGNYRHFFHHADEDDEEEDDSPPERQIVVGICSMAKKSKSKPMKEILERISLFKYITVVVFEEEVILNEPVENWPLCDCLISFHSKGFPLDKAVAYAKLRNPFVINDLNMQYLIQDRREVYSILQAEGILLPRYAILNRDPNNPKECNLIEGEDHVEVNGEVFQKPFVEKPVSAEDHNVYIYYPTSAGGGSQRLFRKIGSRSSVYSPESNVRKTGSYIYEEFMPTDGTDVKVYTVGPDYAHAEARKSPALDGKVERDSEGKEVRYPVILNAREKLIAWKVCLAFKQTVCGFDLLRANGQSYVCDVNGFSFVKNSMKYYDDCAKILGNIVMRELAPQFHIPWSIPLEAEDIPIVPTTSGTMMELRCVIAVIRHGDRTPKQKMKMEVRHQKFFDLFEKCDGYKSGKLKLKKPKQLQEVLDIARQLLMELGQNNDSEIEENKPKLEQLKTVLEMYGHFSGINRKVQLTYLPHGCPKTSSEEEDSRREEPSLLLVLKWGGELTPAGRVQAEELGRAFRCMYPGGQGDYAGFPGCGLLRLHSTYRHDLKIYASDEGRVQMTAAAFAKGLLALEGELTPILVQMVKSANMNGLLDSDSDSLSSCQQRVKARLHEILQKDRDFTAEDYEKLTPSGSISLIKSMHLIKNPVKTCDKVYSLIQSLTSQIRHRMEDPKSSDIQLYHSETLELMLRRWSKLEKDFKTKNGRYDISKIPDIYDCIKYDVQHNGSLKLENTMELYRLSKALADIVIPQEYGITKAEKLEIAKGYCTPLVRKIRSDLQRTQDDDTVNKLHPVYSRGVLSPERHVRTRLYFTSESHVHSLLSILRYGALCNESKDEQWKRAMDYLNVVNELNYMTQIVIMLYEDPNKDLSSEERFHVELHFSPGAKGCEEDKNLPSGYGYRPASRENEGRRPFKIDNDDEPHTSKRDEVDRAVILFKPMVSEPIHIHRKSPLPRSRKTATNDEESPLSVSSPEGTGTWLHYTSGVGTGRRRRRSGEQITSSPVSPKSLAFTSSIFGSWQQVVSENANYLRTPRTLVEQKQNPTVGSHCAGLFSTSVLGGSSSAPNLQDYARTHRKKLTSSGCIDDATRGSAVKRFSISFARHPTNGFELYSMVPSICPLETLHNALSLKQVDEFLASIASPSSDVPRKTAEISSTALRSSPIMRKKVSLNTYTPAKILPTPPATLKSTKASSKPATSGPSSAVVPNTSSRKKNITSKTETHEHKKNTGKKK
# Variants of: B1
# Conditions: with ubp8_human USP8, P40818
row,Variant,effect of a mutation on the interaction
1,K49E;R56E;V178D,decreasing interaction strength

# Variants of: B2
# Conditions: with dusty_human DSTYK
row,Variant,effect of a mutation on the interaction
1,K49E;R56E;V178D,decreasing interaction strength

# Variants of: B3
# Conditions: with wdr59_human WDR59, Q6PJI9
row,Variant,effect of a mutation on the interaction
1,K49E;R56E;V178D,decreasing interaction strength

# Variants of: B4
# Conditions: with plk4_human PLK4, O00444
row,Variant,effect of a mutation on the interaction
1,K49E;R56E;V178D,decreasing interaction strength

# Variants of: B5
# Conditions: with smag2_human SAMD4B
row,Variant,effect of a mutation on the interaction
1,K49E;R56E;V178D,decreasing interaction strength

# Variants of: B6
# Conditions: with vip2_human PPIP5K2, O43314
row,Variant,effect of a mutation on the interaction
1,K49E;R56E;V178D,decreasing interaction strength
